Measurements: PMC8528721, “Hop2 interacts with the transcription factor CEBPα and suppresses adipocyte differentiation” (The Journal of Biological Chemistry, 2021)
Blank lines part the entries; values can stand above or below the binder they belong to.

Legend:
His-CEBPα = His-CEBPα (UniProt P53566 1-359); assay: EMSA; no Hop2; EMSA: 5 pmol probe, room temperature, 10 min; buffer, salt and pH not given (refs 36, 55); settings: protein: recombinant; tags: His; chain copies: 2; label: 32P; self-annealed, two copies of the strand; 20 bp duplex with 5' overhang 4 nt (GATC) at both ends
His-CEBPα, sequence (P53566 whole entry): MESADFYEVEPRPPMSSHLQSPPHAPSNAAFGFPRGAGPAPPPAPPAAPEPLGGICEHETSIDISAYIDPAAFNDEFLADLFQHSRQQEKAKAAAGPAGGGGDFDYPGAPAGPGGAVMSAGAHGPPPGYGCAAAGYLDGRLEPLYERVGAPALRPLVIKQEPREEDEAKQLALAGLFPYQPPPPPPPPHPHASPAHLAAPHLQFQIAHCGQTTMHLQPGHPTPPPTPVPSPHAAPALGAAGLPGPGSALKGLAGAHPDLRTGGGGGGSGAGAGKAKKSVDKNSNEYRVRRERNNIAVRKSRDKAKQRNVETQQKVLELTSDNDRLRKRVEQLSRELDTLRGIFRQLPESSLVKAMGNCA

[1] = target: T1, endogenous CEBPβ (CCAAT enhancer binding protein beta) (mouse (endogenous in mouse visceral …, UniProt P28033-1 1-296)); assay: cell-based or functional assay
T1 sequence (looked up): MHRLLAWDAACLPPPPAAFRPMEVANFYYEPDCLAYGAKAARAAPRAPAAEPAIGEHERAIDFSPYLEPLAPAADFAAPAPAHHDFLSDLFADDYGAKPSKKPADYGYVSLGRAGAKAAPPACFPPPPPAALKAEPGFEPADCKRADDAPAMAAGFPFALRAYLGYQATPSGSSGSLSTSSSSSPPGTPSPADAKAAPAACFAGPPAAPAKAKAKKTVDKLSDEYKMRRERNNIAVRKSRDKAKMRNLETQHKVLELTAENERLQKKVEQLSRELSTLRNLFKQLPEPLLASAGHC

Flag-tagged CEBPα = Flag-tagged CEBPα (UniProt P53566 1-359); assay: cell-based or functional assay
Flag-tagged CEBPα, sequence (P53566 whole entry): as the sequence (P53566 whole entry) above

[2] = target: T2, CEBPδ in nuclear extracts of COS1 cells (UniProt Q00322 1-268); assay: cell-based or functional assay
T2 sequence (looked up): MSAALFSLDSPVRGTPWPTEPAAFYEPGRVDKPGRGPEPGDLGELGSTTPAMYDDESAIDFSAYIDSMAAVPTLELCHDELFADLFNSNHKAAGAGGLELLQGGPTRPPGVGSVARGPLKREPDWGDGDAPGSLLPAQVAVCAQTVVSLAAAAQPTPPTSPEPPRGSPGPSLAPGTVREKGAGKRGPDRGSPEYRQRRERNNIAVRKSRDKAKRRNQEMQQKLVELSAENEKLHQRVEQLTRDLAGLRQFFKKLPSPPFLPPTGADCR

B1: CEBP consensus palindrome probe (dsDNA)
DNA 1: GATCTGCAGATTGCGCAATCTGCA
DNA 2: GATCTGCAGATTGCGCAATCTGCA
binding result (His-CEBPα): binds

C3-Luc reporter activity in COS1 cells cotransfected with CEBPβ and Hop2 (4.5-fold brought down to 3.1-fold) [1]: 31 % suppression | Leptin-Luc reporter activity in COS1 cells cotransfected with CEBPβ and Hop2 (21.0- to 1.7-fold) [1]: 92 % inhibition | C3-Luc reporter activity in COS1 cells cotransfected with CEBPα and Hop2 (6.1-fold brought down to 1.6-fold) (Flag-tagged CEBPα): 74 % suppression | Leptin-Luc reporter activity in COS1 cells cotransfected with CEBPα and Hop2 (35.7- to 12.2-fold) (Flag-tagged CEBPα): 66 % inhibition | C3-Luc reporter activity in COS1 cells cotransfected with CEBPδ and Hop2 (5.7-fold brought down to 2.2-fold) [2]: 61 % suppression | Leptin-Luc reporter activity in COS1 cells cotransfected with CEBPδ and Hop2 (31.9- to 1.4-fold) [2]: 97 % inhibition
B2: hemagglutinin (HA)-tagged Hop2 (natural protein, UniProt O35047 1-217, looked up)
chain: MSKSRAEAAAGAPGIILRYLQEQNRPYSAQDVFGNLQKEHGLGKAAVVKALDQLAQEGKIKEKTYGKQKIYFADQNQFDTVSDADLHGLDASIVALTAKVQSLQQSCRHMEAELKELTSALTTPEMQKEIQELKKECAQYTERLKNIKAATNHVTPEEKEKVYRDRQKYCKEWRKRKRMTTELCDAILEGYPKSKKQFFEEVGIETDEDHNVLLPDP
